IntAct's records for PubMed 21293379

Target: nsd2_human NSD2 (UniProt O96028)
Sequence of UniProt O96028 (O96028 whole entry): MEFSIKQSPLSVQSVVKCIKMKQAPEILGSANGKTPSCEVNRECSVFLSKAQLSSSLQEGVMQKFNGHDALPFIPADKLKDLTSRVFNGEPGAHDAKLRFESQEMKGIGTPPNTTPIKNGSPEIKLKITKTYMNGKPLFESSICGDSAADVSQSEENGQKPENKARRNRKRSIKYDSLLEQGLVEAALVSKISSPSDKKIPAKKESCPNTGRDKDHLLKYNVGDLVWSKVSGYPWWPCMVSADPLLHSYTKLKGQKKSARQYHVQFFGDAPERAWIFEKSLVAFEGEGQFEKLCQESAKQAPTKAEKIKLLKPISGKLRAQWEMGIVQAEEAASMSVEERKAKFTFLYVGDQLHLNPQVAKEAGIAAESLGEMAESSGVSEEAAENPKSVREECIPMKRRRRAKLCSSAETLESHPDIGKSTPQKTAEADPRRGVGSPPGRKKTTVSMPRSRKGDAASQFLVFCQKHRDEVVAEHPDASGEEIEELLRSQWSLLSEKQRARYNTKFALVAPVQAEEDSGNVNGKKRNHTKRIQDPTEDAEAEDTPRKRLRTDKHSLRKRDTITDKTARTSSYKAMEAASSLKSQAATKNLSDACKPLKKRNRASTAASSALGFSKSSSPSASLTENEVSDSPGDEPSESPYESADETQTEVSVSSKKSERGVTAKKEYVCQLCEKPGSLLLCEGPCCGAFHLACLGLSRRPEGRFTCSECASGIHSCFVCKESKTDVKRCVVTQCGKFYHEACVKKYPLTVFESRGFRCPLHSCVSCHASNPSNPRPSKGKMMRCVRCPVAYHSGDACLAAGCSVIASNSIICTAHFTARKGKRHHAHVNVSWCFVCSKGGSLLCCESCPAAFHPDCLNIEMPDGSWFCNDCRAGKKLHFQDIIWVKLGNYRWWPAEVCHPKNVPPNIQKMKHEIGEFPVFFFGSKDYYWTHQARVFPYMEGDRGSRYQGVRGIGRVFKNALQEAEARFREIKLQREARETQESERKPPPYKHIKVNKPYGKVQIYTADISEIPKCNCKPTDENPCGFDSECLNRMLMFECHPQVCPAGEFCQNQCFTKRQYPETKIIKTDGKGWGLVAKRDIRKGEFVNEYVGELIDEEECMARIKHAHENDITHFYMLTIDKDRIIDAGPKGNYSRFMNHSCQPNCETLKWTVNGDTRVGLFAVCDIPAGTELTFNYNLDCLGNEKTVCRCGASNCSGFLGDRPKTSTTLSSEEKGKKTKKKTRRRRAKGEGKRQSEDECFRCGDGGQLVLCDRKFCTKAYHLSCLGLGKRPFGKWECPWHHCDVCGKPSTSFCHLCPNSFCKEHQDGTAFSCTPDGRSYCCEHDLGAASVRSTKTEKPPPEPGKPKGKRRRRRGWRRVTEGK

Mediator of DNA damage checkpoint protein 1 (Homo sapiens), Q14676 K1936M
effect of a mutation on the interaction: disrupting interaction
